Source: article PMC9477280 (PLoS Pathogens, 2022)

B1: JWS-H4 (VHH)
VHH: SGGGLVQAGGSLRLSCTTSASIFSGYRMGWFRQAPGKQREFVASIADGQNTPYADSVMGRFTISRDNAKNTVYLQMSNLKPEDTAIYYCKSWGYTDWGQGTQVTVSS
notes: also called αInt-12; JWZ-5 (vector name)
B2: JWU-F3 (VHH)
VHH: SGGGLVQPGGSLRLTCVSSLSDFRLTNMAWYRQTPGSERDVVAGISPNGITSYHASVQDRFNISRDNARKTLFLQMNSLKPEDSGVYYCNIRWGSLLPWGQGTQVTVSP
notes: also called JXA-1 (vector name); not shown: thioredoxin, N-terminal, kept; E-tag, C-terminal, kept
B3: JWU-H4 (VHH)
VHH: TGGGSVQPGGSLRLSCAPSGFSLAYYGVGWFRQAPGKEREALACISRFGDDTYYADSAKGRFTVSRDNAKNTVYLEMNNLKPEDTGVYYCAAGWVVVTDESCGSGDAYNYWGRGTQVTVSS
notes: also called JXA-5 (vector name); not shown: thioredoxin, N-terminal, kept; E-tag, C-terminal, kept
B4: JXE-B1 (VHH)
VHH: TGGGLVQAGDSLRLSCAASSGRNFSNYATGWFRQAPGKEQEFVASISRSGRSTYYADSAKGRFTISRDNARNTVYLQMNSLKPEDTADYYCAAHETQWPNGLGWVRGFYDLWGQGTQVTVSS
notes: also called JXK-1 (vector name); not shown: thioredoxin, N-terminal, kept; E-tag, C-terminal, kept
B5: JWT-C1 (VHH)
VHH: SGGLVQPGGSLRLSCAASGFTLANSAIGWFRQAPGKGREAVSCISTSAGTTNYASSVKGRFTTARDNAKNMAYLQMDNLKSGDTGVYECAAGWSIDCSGYILPAADVWGQGTQVTVSS
notes: also called αInt-13; JWZ-7 (vector name)
B6: JXF-D7 (VHH)
VHH: SGGGLVQTGGSLRLSCSASGFALEYYAVGWFRQAPGKEREGVSCFSGSDGSKFHAQFVKGRFTISLDKEKNTVDLTMNNLKPEDTAVYYCAVAGPSDHQCDLGMTWYHRWGQGTQVTVSS
notes: also called αEspA-1; JXM-6 (vector name); not shown: thioredoxin, N-terminal, kept; E-tag, C-terminal, kept
B7: JXF-D8 (VHH)
VHH: SGGALVQPGGSLRLSCAASGINLDYYAIGWFRQAPGKERKGVSCISHVDDDRIYYSDSVKGRFTISRDNAKNTVYLQMNSLEPEDTAVYYCATAGPSDYPCDLELWTYRRWGQGTQVTVSS
notes: also called αEspA-2; JXM-8 (vector name); not shown: thioredoxin, N-terminal, kept; E-tag, C-terminal, kept
B8: JXF-H9 (VHH)
VHH: SGGGLAQTGGSLRLSCAASGFRLEYYAVGWFRQAPGKEREGVSCLSGSDGSTYNAEFAKGRFTISRDDAKNTVYLLMNSLKPEDTAVYYCAVAGPSDYQCDLGTRWYHRWGQGTVVTVSA
notes: also called αEspA-3; JXM-12 (vector name); not shown: thioredoxin, N-terminal, kept; E-tag, C-terminal, kept
B9: JXF-C4 (VHH)
VHH: SGGGLVQAGGSLRLSCVAYGRTANTFKEYAMGWFRHNPGEDHEFVGGISQNGDEAYFDDSVKGRFTPSRDNAKNTMYLQMNSLRPEDTAAYYCVAQRSSERLVGDMYSAMDSWGKGTLVTVST
notes: also called αEspA-4; JXM-15 (vector name); not shown: thioredoxin, N-terminal, kept; E-tag, C-terminal, kept
B10: JYB-B1 (VHH)
VHH: TGGGLVQAGGSLRLSCAISGFSLGDYAIGWFRQAPEKEREGVAFSGSLGNTYYPDSMKGRFTISRDDAENAVYLEMKNLKPEDTAVYRCTSGGTFDAVVLGLSTYWGQGTQVTVSS
notes: also called αEspA-5; JYE-1 (vector name); not shown: thioredoxin, N-terminal, kept; E-tag, C-terminal, kept
B11: JYB-B8 (VHH)
VHH: TGGGLVQPGGSLRLSCAASGFTFSTYWMYWVRQAPGKGLEWVSTIDTGGSDTYYADSVKGRFTISRDNVKNTLYLQMDNLKPEDTALYYCGSSRDIVIVTTLRDFDYWGQGTQVTVFS
notes: also called αEspA-6; JYE-2 (vector name); not shown: thioredoxin, N-terminal, kept; E-tag, C-terminal, kept
B12: JYB-D1 (VHH)
VHH: TGGGLVQAGGSLRLSCAASGNTFSYTAMAWFRQAPGKQRELVARISSGRGPTKYADSVKGRFTISRDNTLNTVWLQMNDLKPEDTAVYFCNTLKYSGESSYIAGDSWGQGTQVTVSS
notes: also called αEspA-7; JYE-3 (vector name); not shown: thioredoxin, N-terminal, kept; E-tag, C-terminal, kept
B13: JYB-H4 (VHH)
VHH: SGGGLVQPGGSLRLSCAASGVTLEYYAIGWFRQVPGKEREGVSCISTSGAGTNYADSVKGRFTISKDNAKNTVYLQMNSLKPEDTAVYYCAARDFTEVPIGGCEWEYDYWGQGTQVTVSS
notes: also called αEspA-8; JYE-4 (vector name); not shown: thioredoxin, N-terminal, kept; E-tag, C-terminal, kept
B14: JYB-H6 (VHH)
VHH: TGGGLVQPGGSLRLSCVASGFILDAYTIGWFRQAPGKEREGVASINGSGFSTNYADSVKGRFTISRDNAKNTVWLQMNSLKPEDTAVYYCAAALGLLTPRLESTPFDDWGQGTQVTVSS
notes: also called αEspA-9; JYE-5 (vector name); not shown: thioredoxin, N-terminal, kept; E-tag, C-terminal, kept
B15: JVB-C6 (VHH)
VHH: TGGGLVQPGGSLTLSCAASGFSITENAMGWARQVPGKGLEWVSLVYSGGNTYYAESIEGRFTISRDNAKNTVYLRMTSLKPEDTGVYYCAAREAVRVAGPPADVWGQGTQVTVSS
notes: also called αTir-1; JVG-1 (vector name); not shown: thioredoxin, N-terminal, kept; E-tag, C-terminal, kept
B16: JVB-G4 (VHH)
VHH: SGGGLVEAGGSLRLSCSASGRASGDGHLGWFGDGALAWFRQAPGKEREYVAAVGHSGTDTYYSDSVKGRFTISRDNAKSMGYLQMDNLRPDDTGIYYCALDLHLGQPGYDYWGQGTQVIVSS
notes: also called αTir-2; JVG-2 (vector name); not shown: thioredoxin, N-terminal, kept; E-tag, C-terminal, kept
B17: JVB-G8 (VHH)
VHH: TGGGLVQAGGSLRLSCVASGFTFNDYVLTWFRQAPGKGREGVASISPAFGNTFYADSVKGRFTITSDSAKKQVCLQMNNLKSEDTAVYFCAADPTVNFGPVLRAENYRHWGQGTQVTVSS
notes: also called αTir-3; JVG-3 (vector name); not shown: thioredoxin, N-terminal, kept; E-tag, C-terminal, kept
B18: JVC-C6 (VHH)
VHH: SGGGLVQAGGSLRLSCAASGVTFVDYATGWFRQAPGKEREGIACISNGASGSFVVNSVKGRFTTSTDNAKNTAYLQMNDLKPEDTATYYCALLGRTGGHCTDPNEYSYWGQGTQVTVSS
notes: also called αTir-4; JVI-1 (vector name); not shown: thioredoxin, N-terminal, kept; E-tag, C-terminal, kept
B19: JVC-D10 (VHH)
VHH: TGGLVQTGDSLTLSCVVSGRGFCDWAMAWFRQAPGKEREKVSAIGWSGQDTYYSEPAKGRFTISRDNAKNTVWLRMTNLKSEDTAVYYCAAATRAYADYDYWGQGTQVTVSS
notes: also called αTir-5; JVI-2 (vector name); not shown: thioredoxin, N-terminal, kept; E-tag, C-terminal, kept
B20: JVC-E5 (VHH)
VHH: TGGGTVQAGSSLRLSCTASGFTFTDAAMGWFRQAPGKEREFVAAINWDSANKYYADSVKGRFTISRDNAKNTVYLEMTALKPEDTADYICAGDAKLGHVATSDVWRFWGQGTQVTVSS
notes: also called αTir-6; JVI-3 (vector name); not shown: thioredoxin, N-terminal, kept; E-tag, C-terminal, kept
B21: JVA-A1 (VHH)
VHH: SGGSVEAGDSLRLSCAASGRGFGDGALAWFRQAPGKEREYVAAVGHSGTDTYYADSVKGRFTISRDNAKNMGYLQMDSLRPDDTGVYYCALDLHLGQPGYDYWGQGTQVTVSS
notes: also called αTir-7; JVF-1 (vector name); not shown: thioredoxin, N-terminal, kept; E-tag, C-terminal, kept
B22: JVA-C8 (VHH)
VHH: SGGGLVQAGGSLRLSCAASGFTFVDYGIAWVRQAPGKEREGVSCVSTSNRSQWYADSVKGRFTISSDNAKNTVYLQMDNLKPEDTAVYYCTRIDVGDNCRDGGGYRGQGTQVTISS
notes: also called αTir-8; JVF-2 (vector name); not shown: thioredoxin, N-terminal, kept; E-tag, C-terminal, kept
B23: JVA-C9 (VHH)
VHH: TGGGLVQAGGSLRLSCVDSGRTFGDNAMGWFRQAPGKEREYVAAIGYNGDSTYYLNSVKGRFTISRDNAKNTLYLQMNSLQLEDTGVYICAAKTRVTTKEYDFWGQGTQVTVSS
notes: also called αTir-9; JVF-3 (vector name); not shown: thioredoxin, N-terminal, kept; E-tag, C-terminal, kept
B24: JVA-D4 (VHH)
VHH: TGGGLAQAGGSLRLSCATSGFTFADYAIGWFRQAPGKEREGVACISTSDNGQYSADSVKGRFTISKDNAKKTVYLQMNSLKPDDTAIYYCHLIDVGSNCRKGKDDGFWGQGTQVTVSS
notes: also called αTir-10; JVF-4 (vector name); not shown: thioredoxin, N-terminal, kept; E-tag, C-terminal, kept
B25: JVA-F6 (VHH)
VHH: SGGGLVQAGDSLRLSCVTSGRSFSEAAMGWFRQAPGKERELMTSIGWNGDRTYYADSVKGRFTISRDNAKNTVYLQMNGLTPNDTAVYYCAAAVRASKGYEYWGQGTQVTVSS
notes: also called αTir-11; JVF-7 (vector name); not shown: thioredoxin, N-terminal, kept; E-tag, C-terminal, kept
B26: JVA-D11 (VHH)
VHH: SGGGLVQAGGSLRLSCAASGFTFNDYAKAWFRRAPGKEREGISAISSMGESTFYADSVKGRFTISSDSAKNTVYLQMNSLKPEDTAVYYCAADPTVKWGHVLREENYDYWGQGTQVTVVS
notes: also called αTir-12; JVF-8 (vector name); not shown: thioredoxin, N-terminal, kept; E-tag, C-terminal, kept
B27: JVA-E10 (VHH)
VHH: SGGGLVQAGGSLRLSCVASGRTFSDYAMGWFRQAPGKEREFVAAISWNGGSTYYADSVKGRFTISRDNAKNTMYLQMNSLKSEDTAVYYCISEGRGLRQVKTATDWEYWGQGTQVTVSP
notes: also called αTir-13; JVF-12 (vector name); not shown: thioredoxin, N-terminal, kept; E-tag, C-terminal, kept
B28: JVA-G1 (VHH)
VHH: SGGGLAQAGGSLKLSCVASGFTFADYAIGWFRQAPGKEREGVACISNSVGSTYYSDSVKGRVTISSDNVKKTVYLQMNSLKPEDTAFYYCALIDHGMNCRNSNGIHYWGKGTLVTVSS
notes: also called αTir-14; JVF-14 (vector name); not shown: thioredoxin, N-terminal, kept; E-tag, C-terminal, kept

Molecular target: T1, MC1061 /EPEC intimin (Escherichia coli O127:H6, JPN15 …, UniProt P19809)
T1 construct: also called E. coli 1061/pInt (EPEC); EPEC intimin expressed on the surface of strain MC1061
Assay: ELISA; dilution ELISA with intimin displayed on the surface of E. coli MC1061 as antigen; soluble thioredoxin/VHH/E-tag; EC50 estimates (apparent affinity)
Conditions: one partner purified

Binder	EC50 [nM]
B1	10

Molecular target: EPEC flagella (Escherichia coli O127:H6 E2348/69 (EPEC), UniProt B7USU2)
Assay: ELISA; dilution ELISA; purified antigen coated directly on Nunc Maxisorp wells, typically 1 μg/mL in PBS overnight at 4°C, blocked with 4% milk in PBS 0.1% Tween; thioredoxin/VHH/E-tag from 125 nM in 1:5 serial dilutions, 1 h 37°C; detected with HRP anti-E-tag; EC50 estimates (apparent affinity); Trace = EC50 >125 nM, poor but detectable
Conditions: both partners purified

Binder	EC50 [nM]
B2	0.2
B3	10
B4	0.1

Molecular target: T2, EHEC intimin (Escherichia coli O157:H7 EDL933 (EHEC), UniProt P43261)
T2 construct: also called recombinant intimin (EHEC)
Assay: as above
Conditions: both partners purified

Binder	EC50 [nM]
B5	0.5

Molecular target: C. rodentium EspA (Citrobacter rodentium ICC168 (parent of …, UniProt D2TKE3))
Assay: as above
Conditions: both partners purified

Binder	EC50 [nM]
B6	0.7
B7	0.7
B8	0.7
B9	0.7
B10	0.3
B11	0.7
B12	3
B13	0.5
B14	0.3

Molecular target: T3, EPEC Tir (enteropathogenic E. coli (EPEC), UniProt B7UM99)
T3 construct: also called GST-tagged EPEC Tir; recombinant his-tagged Tir
Assay: ELISA; capture dilution ELISA; plate coated with 5 μg/mL of a non-competing VHH (no thioredoxin, no E-tag), antigen at 1 μg/mL captured for 1 h at 37°C (S1 Fig c-d: EPEC Tir, REPEC Tir); thioredoxin/VHH/E-tag from 125 nM in 1:5 serial dilutions; HRP anti-E-tag; EC50 estimates (apparent affinity); trace = EC50 >125 nM
Conditions: both partners purified

Binder	EC50 [nM]
B15	50
B16	0.1
B17	0.2
B18	0.2
B19	0.2
B20	0.2
B21	10
B22	0.2
B23	5
B24	0.5
B25	25
B26	0.2
B27	0.2
B28	0.2

Molecular target: T4, MC1061 expressing EHEC intimin (Escherichia coli O157:H7 EDL933 (EHEC), UniProt P43261)
T4 construct: also called E. coli 1061/pInt (EHEC); EHEC intimin expressed on the surface of strain MC1061
Assay: ELISA; dilution ELISA with intimin displayed on the surface of E. coli MC1061 as antigen; soluble thioredoxin/VHH/E-tag; EC50 estimates (apparent affinity)
Conditions: one partner purified

Binder	binding result
B1	binds
